{"source": "patent US9644037B2", "about": "“Antibodies that specifically bind ataxia telangiectasia-mutated and RAD3-related kinase phosphorylated at position 1989 and their use” (THE UNITED STATES OF AMERICA, AS REPRESENTED BY THE …, priority 2013, dated 2017)", "molecules": {"B1": {"name": "Clone 7A7: subclone of hybridoma 7; rabbit monoclonal antibody that specifically binds pT1989 ATR (antibody)", "heavy": "QSVEESGGRLVAPGTPLTLTCTVSGIDLMYNAMNWVRQAPGKGLEFIGMIGSGGNTVYASWAKGRFTISKTSTTVGLKMTSLTQEDTATYFCAREGSGGSMDFWGPGTLVTVSSGQPKAPSVFPLAPCCGDTPSSTVTLGCLVKGYLPEPVTVTWNSGTLTNGVRTFPSVRQSSGLYSLSSVVSVTSSSQPVTCNVAHPATNTKVDKTVAPSTCSKPTCPPPELLGGPSVFIFPPKPKDTLMISRTPEVTCVVVDVSQDDPEVQFTWYINNEQVRTARPPLREQQFNSTIRVVSTLPIAHQDWLRGKEFKCKVHNKALPAPIEKTISKARGQPLEPKVYTMGPPREELSSRSVSLTCMINGFYPSDISVEWEKNGKAEDNYKTTPAVLDSDGSYFLYSKLSVPTSEWQRGDVFTCSVMHEALHNHYTQKSISRSPGK", "light": "ALVMTQSPSSVSAAVGGTVTITCQASQSLYNNNYLAWFQQKPGQRPKLLIYKASTLASGVPSRFKGSGSGTQFTLTISDLECEDAATYYCLGEYKDNVDDGNAFGGGTEVVVEGDPVAPTVLIFPPAADQVATGTVTIVCVANKYFPDVTVTWEVDGTTQTTGIENSKTPQNSADCTYNLSSTLTLTSTQYNSHKEYTCKVTQGTTSVVQSFNRGDC"}}, "key": {"[1]": {"tested_on": "non-phospho peptide-BSA conjugates", "experiment": "Direct ELISA against non-phospho peptide-BSA conjugates", "type": "binding, human", "description": "(§1) The titer results from the pair of rabbits for each peptide antigen were determined in a colorimetric ELISA against BSA-conjugated peptides. Plates were coated with 50ng/well peptide-BSA conjugate in bicarbonate buffer pH 9.6 and incubated at 4° C. overnight, then and blocked with 1% BSA in TBS. Diluted (1:250-1:256,000) rabbit anti-sera (50 ul/well) were added and incubated at room temperature. Plates were washed with Tris-buffered saline with 0.05% Tween (TBST). Anti-rabbit secondary conjugated to alkaline phosphatase was used for detection with p-nitrophenyl phosphate (PNPP) substrate. Plates were read at 405 nm with a plate reader."}, "[2]": {"tested_on": "ATR pT1989 phospho-peptides conjugated to BSA", "experiment": "ELISA against phospho-peptide-BSA conjugates (bleed, hybridoma and clone screening)", "type": "binding, human", "description": "as §1\nIndependent screening of blood was conducted. Flat bottom, black, high binding 360 μL plates with clear bottom (VWR catalog #29444-037) were coated with 100 ng/well peptide-BSA conjugate in bicarbonate buffer pH 9.6 (Sigma, catalog # C3041-100CAP) and incubated at 4° C. overnight, then and blocked with ODYSSEY® blocking buffer (LiCor, catalog #927-40010). Diluted (1:250-1:1,000,000) rabbit anti-sera (100 ul/well) were added and incubated at 24 C. Plates were washed with phosphate-buffered saline with 0.05% tween-20 (PBS-T). […] Plates were read at 700 nm with a Licor ODYSSEY® scanner. Images were quantified using Licor ODYSSEY® application software v3.0 (FIGS. 3 and 4).\nCell growth was monitored 2-3 weeks after fusion. […]"}, "pT1989 ATR": {"target": "T1, pT1989 ATR (Homo sapiens, UniProt Q13535)", "T1 construct": "lysates from cells expressing ATR (HT-29, LoVo and DLD-1); endogenous in cells; host or cells: DLD-1 parental, DLD-1 Seckel (Horizon), HT-29, LoVo; with or without gemcitabine", "T1 sequence (Q13535 whole entry, the tested form may be a part)": "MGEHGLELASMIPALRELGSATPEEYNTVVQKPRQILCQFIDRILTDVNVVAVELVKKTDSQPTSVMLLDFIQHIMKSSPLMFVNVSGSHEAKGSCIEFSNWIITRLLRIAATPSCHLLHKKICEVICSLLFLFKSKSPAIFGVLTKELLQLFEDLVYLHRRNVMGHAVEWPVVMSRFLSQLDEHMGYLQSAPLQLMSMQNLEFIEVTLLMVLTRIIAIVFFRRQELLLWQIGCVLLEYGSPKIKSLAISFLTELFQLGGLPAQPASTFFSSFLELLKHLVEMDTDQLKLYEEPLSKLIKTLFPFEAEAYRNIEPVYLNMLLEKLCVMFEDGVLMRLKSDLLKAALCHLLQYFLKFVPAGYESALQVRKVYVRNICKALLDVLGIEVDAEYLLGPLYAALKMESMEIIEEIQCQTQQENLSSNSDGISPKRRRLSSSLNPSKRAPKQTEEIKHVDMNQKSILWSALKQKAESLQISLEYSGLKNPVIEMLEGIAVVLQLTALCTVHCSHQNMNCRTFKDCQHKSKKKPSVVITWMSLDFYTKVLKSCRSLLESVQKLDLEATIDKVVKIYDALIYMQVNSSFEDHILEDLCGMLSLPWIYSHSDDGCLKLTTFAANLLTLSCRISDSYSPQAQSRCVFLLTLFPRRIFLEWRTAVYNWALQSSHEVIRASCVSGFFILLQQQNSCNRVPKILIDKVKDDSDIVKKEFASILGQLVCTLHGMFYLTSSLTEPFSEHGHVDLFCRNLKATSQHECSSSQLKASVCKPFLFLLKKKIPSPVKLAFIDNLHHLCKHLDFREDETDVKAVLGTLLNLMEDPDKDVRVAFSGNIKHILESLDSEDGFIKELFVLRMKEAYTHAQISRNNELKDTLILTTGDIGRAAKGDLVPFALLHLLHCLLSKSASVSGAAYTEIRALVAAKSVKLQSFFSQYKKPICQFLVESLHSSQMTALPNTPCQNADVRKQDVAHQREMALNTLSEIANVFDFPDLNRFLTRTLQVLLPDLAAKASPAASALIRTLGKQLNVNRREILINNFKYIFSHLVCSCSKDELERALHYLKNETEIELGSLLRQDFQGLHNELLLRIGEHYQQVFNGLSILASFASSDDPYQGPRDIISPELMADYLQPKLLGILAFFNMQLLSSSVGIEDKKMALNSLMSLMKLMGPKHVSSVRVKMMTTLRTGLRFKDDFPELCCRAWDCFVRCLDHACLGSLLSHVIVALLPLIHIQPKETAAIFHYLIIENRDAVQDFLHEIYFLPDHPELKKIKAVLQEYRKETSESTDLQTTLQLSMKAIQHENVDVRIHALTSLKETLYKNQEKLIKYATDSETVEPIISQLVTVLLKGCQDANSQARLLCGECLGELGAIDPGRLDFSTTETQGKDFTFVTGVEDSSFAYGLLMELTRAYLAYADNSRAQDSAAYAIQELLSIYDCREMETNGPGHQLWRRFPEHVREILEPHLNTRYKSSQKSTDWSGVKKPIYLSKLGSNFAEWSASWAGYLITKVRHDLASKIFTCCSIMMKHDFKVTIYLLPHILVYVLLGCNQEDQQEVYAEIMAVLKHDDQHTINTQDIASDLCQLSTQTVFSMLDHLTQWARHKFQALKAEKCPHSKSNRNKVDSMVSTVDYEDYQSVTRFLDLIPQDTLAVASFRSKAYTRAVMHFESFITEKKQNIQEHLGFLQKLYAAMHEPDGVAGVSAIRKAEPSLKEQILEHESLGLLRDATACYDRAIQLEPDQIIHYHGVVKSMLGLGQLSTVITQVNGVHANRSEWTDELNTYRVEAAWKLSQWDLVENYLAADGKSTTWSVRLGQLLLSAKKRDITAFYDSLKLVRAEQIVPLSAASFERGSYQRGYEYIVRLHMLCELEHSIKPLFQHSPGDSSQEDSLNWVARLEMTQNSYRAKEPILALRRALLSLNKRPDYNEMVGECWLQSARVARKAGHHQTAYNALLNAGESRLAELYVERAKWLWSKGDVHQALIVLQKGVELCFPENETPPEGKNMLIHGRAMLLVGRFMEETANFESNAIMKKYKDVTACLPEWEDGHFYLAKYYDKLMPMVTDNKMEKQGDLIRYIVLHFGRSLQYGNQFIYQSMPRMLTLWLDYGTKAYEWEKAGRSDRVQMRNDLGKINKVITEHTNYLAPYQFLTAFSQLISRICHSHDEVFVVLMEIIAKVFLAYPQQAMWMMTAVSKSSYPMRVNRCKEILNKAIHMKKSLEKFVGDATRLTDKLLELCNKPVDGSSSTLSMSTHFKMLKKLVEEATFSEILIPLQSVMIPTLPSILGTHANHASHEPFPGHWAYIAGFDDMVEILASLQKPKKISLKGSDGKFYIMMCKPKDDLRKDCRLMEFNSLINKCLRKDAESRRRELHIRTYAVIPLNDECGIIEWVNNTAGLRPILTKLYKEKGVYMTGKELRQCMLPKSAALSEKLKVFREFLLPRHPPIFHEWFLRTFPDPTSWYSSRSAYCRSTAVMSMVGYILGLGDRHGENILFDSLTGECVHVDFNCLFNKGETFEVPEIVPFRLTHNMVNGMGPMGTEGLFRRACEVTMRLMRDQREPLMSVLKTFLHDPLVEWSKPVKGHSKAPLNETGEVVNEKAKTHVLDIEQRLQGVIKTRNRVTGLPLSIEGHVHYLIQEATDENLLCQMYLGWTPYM", "experiment": "Western blot of cell lysates probed with anti-ATR-pT1989 antibodies", "type": "binding", "description": "Cell growth was monitored 2-3 weeks after fusion. Hybridoma supernatants were screened by standard colorimetric ELISA against BSA-conjugated peptides as described in section C. The screening process consisted of a Primary screen on 40 plates (using bleed 2 of E5571 at 1:100 dilution as a Positive control) clones (44) with O.D. greater than 0.5 were considered putatively positive and were further expanded to 24-well plate. Confirmatory screen was performed and 6 clones were confirmed positive against phospho-specific peptides (Table 4). Additional screening was performed by ELISA using the same assay as for bleed screening (FIG. 5). Western blotting was done on selected clones #7, 27 and 35 for subcloning (FIG. 6). […]\nDetails for lysate preparation and Western blotting are given in Example I, section E. The antibody detected a single band at about 250 kDa consistent with the predicted molecular weight (MW) for ATR. The antibody also detected an increase in phospho-ATR (pT1989) upon gemcitabine (SIGMA) treatment which is known to increase ATR activity (Mol. Pharmacol. (2005), 68, 1636-1644). […]\nCells were treated for 4 hours with either vehicle (DMSO, 0.01%), 150 nM Gemcitabine (Sigma), 1 uM ATR inhibitor VE-821 or combination of drugs. The antibody detected a single band at about 250 kDa consistent with the predicted MW for ATR. […]"}, "[3]": {"target": "T2, pT1989ATR foci in cell nuclei (Homo sapiens, UniProt Q13535)", "T2 construct": "lysates from cells expressing ATR (HT-29, LoVo and DLD-1); endogenous in cells; host or cells: DLD-1 parental, DLD-1 Seckel (Horizon), HT-29, LoVo; with or without gemcitabine", "T2 sequence (Q13535 whole entry)": "as the sequence (Q13535 whole entry, the tested form may be a part) above", "experiment": "Immunofluorescence assay (IFA) on FFPE cells, antibody performance", "type": "binding", "description": "Subclones were screened by several assays. Screening was performed by enzyme-linked immunosorbant assay (ELISA) and Western blot for subclones of clones #7, 27 and 35 for subcloning. Subclones of clone #7 were then tested in an immunofluroescent (IFA) assay. Clone #7 was then tested in IFA assay. Formalin fixed paraffin embedded (FFPE) blocks were prepared from DLD-1 cells and DLD-1 Seckel cells treated with and without gemcitabine treatment (100 nM for 4 h). Slides were stained using neat hybridomas supernatants and imaged at 20×.\nFormalin fixed paraffin embedded (FFPE) pellets were generated using cells expressing WT ATR (HT29, DLD-1 Parental) or mutated ATR (DLD-1 Seckel (Horizon)), with and without gemcitabine (SIGMA) treatment to induce ATR phosphorylation at pT1989 (Mol. Pharmacol. 2005, 68, 1636-1644). Cells were harvested by trypsinization, transferred into a sterile 50 ml conical centrifuge tubes with media containing 10% serum and pelleted at 1000×g for 5 minutes. Medium was replaced with fresh serum containing medium and centrifuged again at 1000×g, 5 minutes. All but 1 ml (approximately) of medium was removed and the pellet was re-suspended by flicking the tube. Suspended cells were transferred using a 2 ml pipette into a clean 1.5 ml conical Eppendorf tube. Cells were pelleted for 30 seconds at 8,000 rpm in an Eppendorf micro centrifuge. […]"}}, "data": [{"molecule": "B1", "values": [{"measurement": "cross-reactivity with non-phospho peptide-BSA conjugates", "setting": "[1]", "result": "did not cross-react"}, {"measurement": "specificity, titers for BSA conjugated phosphorylated and non-phosphorylated peptides", "setting": "[2]; FIG. 5C", "result": "specific for the phosphorylated polypeptides"}, {"measurement": "binding to phosphopeptide-BSA conjugates", "setting": "[2]; peptide conjugated at C term or N-term to BSA", "result": "bound the phosphopeptide"}, {"measurement": "specificity and sensitivity in Western blot", "setting": "pT1989 ATR", "result": "specific for pT1989 ATR"}, {"measurement": "detection of pATR in Western blot", "setting": "pT1989 ATR; antibody dilution 1:50, DLD1 lysates", "result": "detected pATR specifically"}, {"measurement": "suitability for pharmacodynamic IFA assay applications", "setting": "[3]", "result": "successfully used"}]}]}
